Source: patent US20220267410A1 (UNIVERSITAT STUTTGART, published 2022)
Where a chain is given by its changes, count along the chain named.

B1: 6xHis-scTNFR2 143 (ligand)
chain: MCGSHHHHHHSGIPASDKPVAHVVANPQAEGQLQWLNRRANALLANGVELRDNQLVVPSEGLYLIYSQVLFKGQGCPSTHVLLTHTISRIAVSYQTKVNLLSAIKSPCQRETPEGAEAKPWYEPIYLGGVFQLEKGDRLSAEINRPDYLNFRESGQVYFGIIALGGGPSDKPVAHVVANPQAEGQLQWLNRRANALLANGVELRDNQLVVPSEGLYLIYSQVLFKGQGCPSTHVLLTHTISRIAVSYQTKVNLLSAIKSPCQRETPEGAEAKPWYEPIYLGGVFQLEKGDRLSAEINRPDYLNFRESGQVYFGIIALGGGPSDKPVAHVVANPQAEGQLQWLNRRANALLANGVELRDNQLVVPSEGLYLIYSQVLFKGQGCPSTHVLLTHTISRIAVSYQTKVNLLSAIKSPCQRETPEGAEAKPWYEPIYLGGVFQLEKGDRLSAEINRPDYLNFRESGQVYFGIIAL
notes: Expressed with Igκ leader and N-terminal 6xHis tag; also called variant 143
B2: 6xHis-scTNFR2 146 (ligand)
chain: MCGSHHHHHHSGIPASDKPVAHVVANPQAEGQLQWLNRRANALLANGVELRDNQLVVPSEGLYLIYSQVLFKGQGCPSTHVLLTHTISRIAVSYQTKVNLLSAIKSPCQRETPEGAEAKPWYEPIYLGGVFQLEKGDRLSAEINRPDYLNFRESGQVYFGIIALGGGTPSDKPVAHVVANPQAEGQLQWLNRRANALLANGVELRDNQLVVPSEGLYLIYSQVLFKGQGCPSTHVLLTHTISRIAVSYQTKVNLLSAIKSPCQRETPEGAEAKPWYEPIYLGGVFQLEKGDRLSAEINRPDYLNFRESGQVYFGIIALGGGTPSDKPVAHVVANPQAEGQLQWLNRRANALLANGVELRDNQLVVPSEGLYLIYSQVLFKGQGCPSTHVLLTHTISRIAVSYQTKVNLLSAIKSPCQRETPEGAEAKPWYEPIYLGGVFQLEKGDRLSAEINRPDYLNFRESGQVYFGIIAL
notes: Expressed with Igκ leader and N-terminal 6xHis tag; also called variant 146
B3: 6xHis-scTNFR2 147 (ligand)
chain: B2 chain with T168G, T322G
notes: Expressed with Igκ leader and N-terminal 6xHis tag; also called variant 147

molecular target: T1, human TNFR2-Fc (etanercept) (human, UniProt P20333 23-257); test: ELISA on coated etanercept
T1 construct: Commercial drug coated on ELISA plates (200 ng/well); also called immobilized TNF-R2; not shown: Fc part of etanercept
T1 sequence (looked up): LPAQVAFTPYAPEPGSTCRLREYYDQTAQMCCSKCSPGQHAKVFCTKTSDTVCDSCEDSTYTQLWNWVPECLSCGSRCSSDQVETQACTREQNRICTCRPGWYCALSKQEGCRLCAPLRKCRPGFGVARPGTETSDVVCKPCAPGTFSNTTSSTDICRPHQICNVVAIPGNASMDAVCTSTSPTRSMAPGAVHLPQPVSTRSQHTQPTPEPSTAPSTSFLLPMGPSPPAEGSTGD
Experimental: The binding of scTNFR2 and the scTNFR2-Fc(Δab) proteins to human TNFR2-Fc (etanercept) was analyzed by ELISA. 96-well ELISA plates were coated with 200 ng/well etanercept in coating buffer (0.1 M sodium carbonate, pH 9.5) overnight at 4° C., blocked with 2% skim milk in PBS (MPBS) and washed with washing buffer PBST (PBS, 0.05 Tween 20). ScTNFR2 and scTNFR2-Fc(Δab) proteins were titrated in duplicates and incubated on the plates for 2 h at room temperature, followed by washing with PBST. Receptor-bound complexes were detected with mouse anti-huTNFα F6C5 (Novus, 1 μg/ml) and goat anti-mouse IgG(Fc)-HRP (Sigma-Aldrich, 1:10,000), followed by extensive washing with PBST each, before incubation with HRP substrate.

| EC50 [nM] | Binder |
| --- | --- |
| 0.67 | B1 |
| 0.71 | B2 |
| 0.76 | B3 |

molecular target: T2, TNFR2 on Kym-1 cells (UniProt P20333 23-461, limits assumed); test: cell-based or functional assay
T2 sequence (looked up): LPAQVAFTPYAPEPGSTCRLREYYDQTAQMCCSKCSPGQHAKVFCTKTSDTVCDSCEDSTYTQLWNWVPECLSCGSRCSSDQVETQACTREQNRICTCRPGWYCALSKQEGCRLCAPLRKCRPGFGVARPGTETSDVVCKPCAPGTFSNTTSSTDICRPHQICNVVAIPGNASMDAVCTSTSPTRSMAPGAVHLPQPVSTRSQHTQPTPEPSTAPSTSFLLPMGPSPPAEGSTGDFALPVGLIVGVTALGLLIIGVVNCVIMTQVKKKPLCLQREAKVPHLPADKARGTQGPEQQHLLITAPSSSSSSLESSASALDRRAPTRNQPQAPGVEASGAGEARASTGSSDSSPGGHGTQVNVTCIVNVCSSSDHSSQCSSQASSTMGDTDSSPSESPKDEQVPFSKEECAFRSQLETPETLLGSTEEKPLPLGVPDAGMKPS

| Binder | EC50 of bioactivity on Kym-1 with 80M2 (cell death, crystal violet) [nM] |
| --- | --- |
| B1 | 0.0119 |
| B2 | 0.00655 |
| B3 | 0.00858 |
